# B1: MuDLL1.DSL-EGF12.Tan 6 (NL 99) (ligand)
# chain: MAAHHHHHHGGENLYFQGFVCDEHYYGEGCSVFCRPRDDAFGHFTCGDRGEKMCDPGWKGQYCTDPICLPGCDDQHGYCDKPGECKCRVGWQGRYCDECIRYPGCLHGTCQQPWQCNCQEGWGGLFCNQGSSGSSGFVCDEHYYGEGCSVFCRPRDDAFGHFTCGDRGEKMCDPGWKGQYCTDPICLPGCDDQHGYCDKPGECKCRVGWQGRYCDECIRYPGCLHGTCQQPWQCNCQEGWGGLFCNQGSSGSSGFVCDEHYYGEGCSVFCRPRDDAFGHFTCGDRGEKMCDPGWKGQYCTDPICLPGCDDQHGYCDKPGECKCRVGWQGRYCDECIRYPGCLHGTCQQPWQCNCQEGWGGLFCNQGSSGSSGFVCDEHYYGEGCSVFCRPRDDAFGHFTCGDRGEKMCDPGWKGQYCTDPICLPGCDDQHGYCDKPGECKCRVGWQGRYCDECIRYPGCLHGTCQQPWQCNCQEGWGGLFCNQGSSGSSGFVCDEHYYGEGCSVFCRPRDDAFGHFTCGDRGEKMCDPGWKGQYCTDPICLPGCDDQHGYCDKPGECKCRVGWQGRYCDECIRYPGCLHGTCQQPWQCNCQEGWGGLFCNQGSSGSSGFVCDEHYYGEGCSVFCRPRDDAFGHFTCGDRGEKMCDPGWKGQYCTDPICLPGCDDQHGYCDKPGECKCRVGWQGRYCDECIRYPGCLHGTCQQPWQCNCQEGWGGLFCNQ
# notes: also called DLL1 Tandem 6×; hexamer
# Key:
# mNotch1ECD-Fc [1] = molecular target: T1, mNotch1ECD-Fc (mouse, UniProt Q01705 19-1725); test: SPR (open SPR), mNotch1ECD-Fc immobilized, Tan 6 injected at 2.2, 0.45, 0.22, 0.11 and 0 µM; apparent KD
# T1 construct: extracellular domain; Immobilized on the SPR chip; also called mouse full length notch extracellular domain; not shown: Fc part
# T1 sequence (Q01705 19-1725): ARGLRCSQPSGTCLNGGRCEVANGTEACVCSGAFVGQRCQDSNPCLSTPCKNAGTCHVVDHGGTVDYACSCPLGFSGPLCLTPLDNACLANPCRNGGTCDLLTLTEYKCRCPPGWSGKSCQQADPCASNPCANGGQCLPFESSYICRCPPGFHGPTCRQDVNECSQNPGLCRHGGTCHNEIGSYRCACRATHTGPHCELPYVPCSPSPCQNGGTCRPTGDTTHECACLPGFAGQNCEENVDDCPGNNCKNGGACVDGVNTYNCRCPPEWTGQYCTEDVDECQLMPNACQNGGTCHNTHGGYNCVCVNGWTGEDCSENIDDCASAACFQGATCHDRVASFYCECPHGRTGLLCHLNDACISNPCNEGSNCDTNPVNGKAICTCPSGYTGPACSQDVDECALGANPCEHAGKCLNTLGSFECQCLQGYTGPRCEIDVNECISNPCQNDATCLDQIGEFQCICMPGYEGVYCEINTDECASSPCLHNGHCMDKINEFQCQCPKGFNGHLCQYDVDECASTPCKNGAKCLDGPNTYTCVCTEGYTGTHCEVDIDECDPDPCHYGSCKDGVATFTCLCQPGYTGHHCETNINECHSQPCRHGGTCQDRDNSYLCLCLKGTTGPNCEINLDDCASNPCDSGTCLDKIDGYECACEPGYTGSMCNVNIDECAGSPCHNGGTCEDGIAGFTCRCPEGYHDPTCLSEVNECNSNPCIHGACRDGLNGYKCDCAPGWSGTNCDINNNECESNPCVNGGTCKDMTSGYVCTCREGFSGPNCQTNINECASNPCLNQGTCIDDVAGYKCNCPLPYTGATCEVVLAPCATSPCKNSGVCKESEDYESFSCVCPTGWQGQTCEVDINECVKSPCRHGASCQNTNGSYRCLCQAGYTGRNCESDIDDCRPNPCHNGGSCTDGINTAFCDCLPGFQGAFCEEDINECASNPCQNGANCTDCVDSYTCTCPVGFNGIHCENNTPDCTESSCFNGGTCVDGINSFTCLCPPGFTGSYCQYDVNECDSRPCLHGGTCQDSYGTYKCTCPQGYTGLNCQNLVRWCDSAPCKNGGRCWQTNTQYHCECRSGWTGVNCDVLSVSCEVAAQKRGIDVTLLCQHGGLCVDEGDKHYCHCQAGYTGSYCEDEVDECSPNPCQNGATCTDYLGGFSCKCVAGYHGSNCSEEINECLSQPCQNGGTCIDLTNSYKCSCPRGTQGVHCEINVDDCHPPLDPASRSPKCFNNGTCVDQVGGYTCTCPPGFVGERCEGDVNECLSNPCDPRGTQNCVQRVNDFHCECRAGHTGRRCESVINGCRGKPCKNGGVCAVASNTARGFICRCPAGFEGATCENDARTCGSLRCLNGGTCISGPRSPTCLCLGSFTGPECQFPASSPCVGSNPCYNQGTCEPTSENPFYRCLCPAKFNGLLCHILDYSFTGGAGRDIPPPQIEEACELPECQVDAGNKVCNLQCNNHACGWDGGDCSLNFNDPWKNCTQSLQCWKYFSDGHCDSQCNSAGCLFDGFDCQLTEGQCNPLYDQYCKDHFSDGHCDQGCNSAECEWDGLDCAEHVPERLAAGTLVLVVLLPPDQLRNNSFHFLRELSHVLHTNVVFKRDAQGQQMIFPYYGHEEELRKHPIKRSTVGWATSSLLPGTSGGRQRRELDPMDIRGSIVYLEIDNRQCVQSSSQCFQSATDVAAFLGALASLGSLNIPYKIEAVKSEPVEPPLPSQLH
# Protocol: (§1) FIG. 25. Open surface plasmon resonance (SPR) binding experiments of DLL1 Tandem 6× against immobilized mouse full length notch extracellular domain (Top) and BSA negative control (bottom). DLL1 Tandem 6× was injected at concentrations of 2.2 μM, 0.45 μM, 0.22 μM, 0.11 μM, and 0 μM (HBS buffer only). Signal to noise of these binding experiments were 3 to 1.
# (§2) The signal:noise of binding to Notch1 versus BSA is about 3:1 at the same concentrations.
# mNotch1ECD-Fc [2] = molecular target: T1, mNotch1ECD-Fc; test: SPR, signal on immobilized mNotch1ECD-Fc against immobilized BSA negative control at the same Tan 6 concentrations
# Protocol: as §1, §2
binder,measurement,setting,value
B1,Kd,mNotch1ECD-Fc [1],1500 nM
same,signal:noise of binding to Notch1 versus BSA,mNotch1ECD-Fc [2],~3 ratio (Notch1 : BSA)

# From patent US20240018213A1 (OHIO STATE INNOVATION FOUNDATION, published 2024)
